# Literature values as cited in article PMC6903724.
# Target: IL-18 (Homo sapiens) (UniProt Q14116)
# Sequence (Q14116 37-193): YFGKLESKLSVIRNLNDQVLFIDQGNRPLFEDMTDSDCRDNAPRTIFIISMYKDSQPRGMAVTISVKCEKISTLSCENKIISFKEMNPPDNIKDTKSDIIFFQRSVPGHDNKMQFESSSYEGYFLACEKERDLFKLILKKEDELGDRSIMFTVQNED
# IL-18BP, sequence (O95998 31-194): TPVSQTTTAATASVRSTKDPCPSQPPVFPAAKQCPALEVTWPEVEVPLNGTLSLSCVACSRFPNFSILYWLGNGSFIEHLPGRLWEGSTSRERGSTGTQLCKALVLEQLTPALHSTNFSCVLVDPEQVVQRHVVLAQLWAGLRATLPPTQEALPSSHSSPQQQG
substance,measurement,value
IL-18BP (from UniProt O95998),Kd,400 pM
